The values below come from patent US20250320281A1.

What all share (experiment): cell-based or functional assay
The target in assay [1] is HIV-1 Env of isolate APV_17, clade B, on pseudovirus (HIV-1).
The target of assay [2] is HIV-1 Env of isolate MGRM-D-026 (clade D pseudovirus) (HIV-1).
In assay [3] the target is HIV-1 Env of isolate MGRM-D-013 (clade D pseudovirus) (HIV-1).
The target of assay [4] is HIV-1 Env of pseudovirus MGRM-Chronic-B-017 (HIV-1).
The target in assay [5] is HIV-1 NL43 Env (pseudovirus, clade B) (HIV-1).
The target of assay [6] is HIV-1 IAVI-C22 envelope glycoprotein (Env) on pseudovirus (HIV-1).
For assay [7], the target named is HIV-1 Env of pseudovirus MGRM-AG-003 (clade CRF_AG) (HIV-1).
Assay [8] concerns the target HIV-1 Env of isolate 92UG046 (clade D pseudovirus) (HIV-1).
The target in assay [9] is HIV-1 Env of isolate MGRM-G-027 (HIV-1).
The target in assay [10] is HIV-1 Env of isolate MGRM-G-009 (HIV-1).
For assay [11], the target named is HIV-1 Env of pseudovirus MGRM-Chronic-B-018 (HIV-1).
Assay [12] deals with HIV-1 Env of isolate MGRM-AE-003 (subtype AE) (HIV-1).
Assay [13] addresses HIV-1 MGRM-D-001 Env (pseudovirus) (HIV-1).
Assay [14] addresses HIV-1 Env of isolate MG RM-D-016 (HIV-1).
The target in assay [15] is HIV-1 Env of isolate MGRM-AG-006 (subtype AG) (HIV-1).
In assay [16] the target is HIV-1 Env of isolate SC422661.8 (subtype B) (HIV-1).
Assay [17] deals with HIV-1 envelope glycoprotein (Env) of isolate MGRM-C-006 (HIV-1).
In assay [18] the target is HIV-1 envelope glycoprotein (Env) of isolate MGRM-C-010 (HIV-1).
Assay [19] has as its target HIV-1 Env of isolate MGRM-Chronic-B-024 (subtype B) (HIV-1).
Assay [20] concerns the target HIV-1 Env of isolate CAAN.A2 (subtype B) (HIV-1).
Assay [21] deals with HIV-1 Env of isolate 92WR024 (HIV-1).
Assay [22] addresses HIV-1 envelope glycoprotein (Env) of isolate MGRM-C-026 (HIV-1).
The target of assay [23] is HIV-1 Env of isolate MG RM-D-019 (HIV-1).
Assay [24] deals with HIV-1 Env of isolate 92UG001 (HIV-1).
Assay [25] concerns the target HIV-1 Env of isolate 92WR021 (HIV-1).
In assay [26] the target is HIV-1 Env of isolate MGRM-C-001 (subtype C) (HIV-1).
In assay [27] the target is HIV-1 Env of isolate 97ZA012 (subtype C) (HIV-1).
Assay [28] concerns the target HIV-1 APV17 Env (pseudovirus, clade B) (HIV-1).
In assay [29] the target is HIV-1 JRFL Env (pseudovirus, clade B) (HIV-1).
Assay [30] concerns the target aMLV envelope, on pseudovirus (negative control virus).
The target of assay [31] is HIV-1 Env of isolate MGRM-F1-023 (HIV-1).

5329_C19 (PGT-136) (antibody), sequence (VH): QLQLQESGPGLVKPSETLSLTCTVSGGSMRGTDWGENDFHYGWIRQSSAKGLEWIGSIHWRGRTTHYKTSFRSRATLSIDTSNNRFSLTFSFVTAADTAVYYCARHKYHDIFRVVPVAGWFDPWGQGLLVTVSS
5329_C19 (PGT-136) (antibody), sequence (VL): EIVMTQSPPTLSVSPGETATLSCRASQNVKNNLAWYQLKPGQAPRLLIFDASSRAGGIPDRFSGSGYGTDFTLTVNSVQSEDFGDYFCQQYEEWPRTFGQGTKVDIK
5345_I01 (PGT-137) (antibody), sequence (VH): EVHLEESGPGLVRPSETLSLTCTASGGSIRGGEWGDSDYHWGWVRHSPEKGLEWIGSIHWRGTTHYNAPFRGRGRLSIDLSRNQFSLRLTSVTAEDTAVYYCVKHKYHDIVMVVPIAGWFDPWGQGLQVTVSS
5345_I01 (PGT-137) (antibody), sequence (VL): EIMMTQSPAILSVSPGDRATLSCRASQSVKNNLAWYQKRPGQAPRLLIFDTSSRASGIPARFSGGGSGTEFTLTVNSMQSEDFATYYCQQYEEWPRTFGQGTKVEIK
4980_N08 (PGT-143) (antibody), sequence (VH): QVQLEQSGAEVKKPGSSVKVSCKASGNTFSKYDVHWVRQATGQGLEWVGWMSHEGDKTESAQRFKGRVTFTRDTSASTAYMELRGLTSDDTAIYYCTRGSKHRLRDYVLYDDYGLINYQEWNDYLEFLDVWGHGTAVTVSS
4980_N08 (PGT-143) (antibody), sequence (VL): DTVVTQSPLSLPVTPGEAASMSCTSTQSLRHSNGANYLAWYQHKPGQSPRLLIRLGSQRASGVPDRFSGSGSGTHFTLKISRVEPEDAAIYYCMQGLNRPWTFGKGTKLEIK
4995_E20 (PGT-142) (antibody), sequence (VH): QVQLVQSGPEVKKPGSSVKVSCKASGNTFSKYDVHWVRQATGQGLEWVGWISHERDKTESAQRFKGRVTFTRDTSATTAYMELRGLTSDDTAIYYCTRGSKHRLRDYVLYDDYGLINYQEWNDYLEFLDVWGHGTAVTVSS
4995_E20 (PGT-142) (antibody), sequence (VL): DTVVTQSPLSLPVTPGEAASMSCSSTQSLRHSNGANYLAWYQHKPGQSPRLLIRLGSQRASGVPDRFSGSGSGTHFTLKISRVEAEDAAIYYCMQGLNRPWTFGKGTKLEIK
4993_K13 (PGT-141) (antibody), sequence (VH): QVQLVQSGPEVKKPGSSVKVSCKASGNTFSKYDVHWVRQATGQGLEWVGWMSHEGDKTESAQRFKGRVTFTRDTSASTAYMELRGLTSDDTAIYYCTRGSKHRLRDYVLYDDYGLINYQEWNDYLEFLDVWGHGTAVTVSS
4970_K22 (PGT-144) (antibody), sequence (VH): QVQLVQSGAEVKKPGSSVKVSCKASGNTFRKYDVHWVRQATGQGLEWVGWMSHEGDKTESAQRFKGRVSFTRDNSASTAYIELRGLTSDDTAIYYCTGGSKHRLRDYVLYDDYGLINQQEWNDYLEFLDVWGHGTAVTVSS
4970_K22 (PGT-144) (antibody), sequence (VL): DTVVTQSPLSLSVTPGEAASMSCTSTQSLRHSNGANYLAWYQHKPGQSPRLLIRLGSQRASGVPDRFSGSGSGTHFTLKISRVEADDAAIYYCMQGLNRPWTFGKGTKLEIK

For 1496_C09 (PG9) (TCN-109) (antibody), the IC50 (µg/ml), pseudovirus neutralization was found to be 14.6 µg/mL in [1]; 17.5 µg/mL in assay [2]; 0.06 µg/mL in assay [3]; 0.32 µg/mL in [4]; 0.64 µg/mL in assay [8]; 0.16 µg/mL in [11]. Moreover, the IC50 neutralization in assay [5] was 0.687 µg/mL. The substance further came in with an IC50, pseudovirus neutralization in [6] of 24.9 µg/mL. Moreover, the concentration for half-maximal inhibition (IC50) in [7] was found to be 9.71 µg/mL. Besides, the results for the IC50 (µg/mL), pseudovirus neutralization in assay [9] and in assay [10] were 0.007 µg/mL and 10.7 µg/mL, respectively.
4970_K22 (PGT-144) (antibody): the IC50 (µg/mL), pseudovirus neutralization in assay [9], in assay [12] and in assay [10] was more than 50 µg/mL each time. In assay [13], the IC50 (neutralizing activity, pseudovirus) is more than 10 µg/mL.
On to 4980_N08 (PGT-143) (antibody), for which the IC50 (µg/mL), pseudovirus neutralization in assay [9] was more than 50 µg/mL; in assay [12], more than 50 µg/mL; in [10] it was 2.97 µg/mL. This substance registered an IC50 (neutralizing activity, pseudovirus) in [13] of more than 10 µg/mL.
With 4993_K13 (PGT-141) (antibody), the figures for the IC50 (µg/mL), pseudovirus neutralization in assay [9], in assay [12] and in assay [10] were more than 50 µg/mL, more than 50 µg/mL and 1.89 µg/mL, respectively. Moreover, the IC50 (neutralizing activity, pseudovirus) in assay [13] is more than 10 µg/mL.
For the substance 4995_E20 (PGT-142) (antibody), the results for the IC50 (µg/mL), pseudovirus neutralization in [9], in assay [12] and in [10] were more than 50 µg/mL, more than 50 µg/mL and 2.81 µg/mL, respectively. This substance also yielded an IC50 (neutralizing activity, pseudovirus) in assay [13] of more than 10 µg/mL.
Consider 5114_A19 (PGT-128) (antibody), for which the IC50 (µg/mL), pseudovirus neutralization in assay [14] is more than 50 µg/mL; in [15], 0.009 µg/mL; in assay [17], 0.014 µg/mL; in assay [18], more than 50 µg/mL; in assay [22], 0.007 µg/mL; in assay [23] it was more than 50 µg/mL. For the same substance, the values for the IC50 (µg/mL), pseudovirus neutralization in assay [12] and in assay [24] were 0.18 µg/mL and more than 50 µg/mL, respectively. In addition, the IC50 neutralization was 1.58 µg/mL in assay [16]; more than 50 µg/mL in assay [19]; 1.48 µg/mL in assay [20]; more than 50 µg/mL in [26]; 0.019 µg/mL in assay [27]. The results for the IC50 in [21] and in [25] were more than 50 µg/mL and 0.005 µg/mL, respectively.
5136_H01 (PGT-131) (antibody): the IC50 (µg/mL), pseudovirus neutralization in [14] is more than 50 µg/mL; in assay [15], 0.019 µg/mL; in assay [17], 0.611 µg/mL; in assay [18], more than 50 µg/mL; in [22] it was 1.67 µg/mL; in assay [23], more than 50 µg/mL. The IC50 (µg/mL), pseudovirus neutralization in [12] is 1.41 µg/mL; in [24] it was more than 50 µg/mL. The IC50 neutralization in assay [16] is more than 50 µg/mL; in assay [19], more than 50 µg/mL; in assay [20] it was more than 50 µg/mL; in assay [26] it was more than 50 µg/mL; in assay [27], 1.81 µg/mL. Also, the concentration for half-maximal inhibition (IC50) was more than 50 µg/mL in assay [21] and 0.012 µg/mL in assay [25].
Turning to 5147_N06 (PGT-130) (antibody), the IC50 (µg/mL), pseudovirus neutralization was more than 50 µg/mL in assay [14]; 0.009 µg/mL in assay [15]; 0.095 µg/mL in assay [17]; more than 50 µg/mL in assay [18]; 0.036 µg/mL in assay [22]; more than 50 µg/mL in [23]. Further, the figures for the IC50 (µg/mL), pseudovirus neutralization in [12] and in assay [24] were 0.337 µg/mL and more than 50 µg/mL, respectively. For the same substance, the IC50 neutralization in [16] was more than 50 µg/mL; in assay [28] it was more than 10 µg/mL; in assay [5] it was more than 10 µg/mL; in assay [29], 0.0346 µg/mL; in assay [19], 5.78 µg/mL; in assay [20], more than 50 µg/mL. The IC50 neutralization was more than 50 µg/mL in assay [26] and 1.32 µg/mL in assay [27]. The figures for the IC50 in [21] and in [25] were more than 50 µg/mL and 0.004 µg/mL, respectively. The IC50, pseudovirus neutralization in assay [30] is more than 10 µg/mL. In [13], the Neutralization by PGT-130, IC50 was more than 10 µg/mL. Moreover, the Neutralization by PGT-130, IC80 in [13] is more than 10 µg/mL. For the same substance, the Neutralization by PGT-130, IC90 in assay [13] was more than 10 µg/mL. This substance registered a Neutralization by PGT-130, IC95 in assay [13] of more than 10 µg/mL. In addition, in assay [13], the neutralization IC50 (pseudovirus) is more than 10 µg/mL.
Take 5329_C19 (PGT-136) (antibody): the IC50 (µg/mL), pseudovirus neutralization in assay [14] is more than 50 µg/mL; in [15], 29.1 µg/mL; in assay [17] it was more than 50 µg/mL; in assay [18], more than 50 µg/mL; in assay [22] it was 0.006 µg/mL; in [23] it was more than 50 µg/mL. Besides, the IC50 (µg/mL), pseudovirus neutralization in assay [12] and in assay [24] was more than 50 µg/mL throughout. Moreover, the IC50 neutralization in [16] is more than 50 µg/mL; in assay [28], more than 10 µg/mL; in assay [5], more than 10 µg/mL; in assay [29], more than 10 µg/mL; in [19] it was more than 50 µg/mL; in [20], more than 50 µg/mL. Besides, the IC50 neutralization in assay [26] is 7.52 µg/mL; in assay [27] it was more than 50 µg/mL. Besides, the 50% inhibitory concentration (IC50) in assay [21] and in assay [25] was more than 50 µg/mL each time. For the same substance, the IC50, pseudovirus neutralization in assay [30] was more than 10 µg/mL. The substance also gave an IC50 (neutralizing activity, pseudovirus) in assay [13] of more than 10 µg/mL.
As to 5343_B08 (PGT-135) (antibody), the IC50 (µg/mL), pseudovirus neutralization in assay [14] was more than 50 µg/mL; in assay [15], 17.9 µg/mL; in [17], more than 50 µg/mL; in assay [18], more than 50 µg/mL; in assay [22], 0.004 µg/mL; in assay [23], more than 50 µg/mL. Besides, the IC50 (µg/mL), pseudovirus neutralization in [12] and in assay [24] was more than 50 µg/mL throughout. Also, the IC50 neutralization was 21.8 µg/mL in assay [16]; more than 10 µg/mL in [28]; 6.79 µg/mL in [5]; more than 10 µg/mL in assay [29]; more than 50 µg/mL in [19]; 5.15 µg/mL in assay [20]. In addition, the IC50 neutralization in assay [26] is 10.1 µg/mL; in assay [27], more than 50 µg/mL. The concentration for half-maximal inhibition (IC50) in assay [21] and in assay [25] was more than 50 µg/mL each time. The substance also had an IC50, pseudovirus neutralization in [30] of more than 10 µg/mL. The substance also showed an IC50 (neutralizing activity, pseudovirus) in assay [13] of more than 10 µg/mL.
For 5345_I01 (PGT-137) (antibody), the IC50 (µg/mL), pseudovirus neutralization in assay [14] was more than 50 µg/mL; in [15], 28.3 µg/mL; in [17], more than 50 µg/mL; in assay [18], more than 50 µg/mL; in [22], 0.011 µg/mL; in [23] it was more than 50 µg/mL. The IC50 (µg/mL), pseudovirus neutralization in [12] and in assay [24] was more than 50 µg/mL in each case. In addition, the IC50 neutralization in [16] was more than 50 µg/mL; in assay [19] it was more than 50 µg/mL; in assay [20], more than 50 µg/mL; in assay [26] it was 21.5 µg/mL; in assay [27], more than 50 µg/mL. The half-inhibitory concentration (IC50) was more than 50 µg/mL in assay [21] and 3.52 µg/mL in [25].
Turning to PGV04 (antibody), the figures for the IC50 (µg/mL), pseudovirus neutralization in assay [9] and in assay [10] were 0.125 µg/mL and 0.043 µg/mL, respectively. The IC50 in assay [24] turned out to be 0.553 µg/mL.
Consider VRC01 (antibody), for which the IC50 in [14] was found to be 0.452 µg/mL; in [31], 0.392 µg/mL; in [23], 0.119 µg/mL. The IC50 (µg/mL), pseudovirus neutralization was 0.36 µg/mL in [9], 0.685 µg/mL in assay [12] and 0.073 µg/mL in assay [10].
